Test results as given in patent publication US20260193376A1 (Novo Nordisk, published 2026).
Blank lines part the entries; values can stand above or below the binder they belong to.

Experiments:
[1] = target: T1, randomly biotinylated human FIXa (human, UniProt P00740 47-191; P00740 227-461, randomly biotinylated (NHS-d-biotin)); assay: BLI (Octet) in-tandem binning on biotinylated FIXa, 330 nM each; competitor (1st antibody): hIgG4 (control)
Procedure: (§1) Binning experiments were performed using Octet fortebio systems (HTX, Red384), based on the principle of Bio-Layer Interferometry, and equipped with streptavidin sensors (Pall Life Sciences, Menlo Park, CA), and using 8-channel mode. The binning assays were performed using a modified in-tandem setup. Briefly, (1) 370 nM randomly biotinylated human FIXa (biotinylated using NHS-d-biotin from Sigma H1759 and human FIXa obtained from Haematologic Technologies, Essex Junction, VT) was captured by streptavidin tips (dip and read biosensors Part NO:18-5019, Pall Life Sciences, Menlo Park, CA) for 5 minutes, (2) 330 nM of a first bivalent anti-FIXa antibody was then offered to the streptavidin tips, and incubated for 10 minutes until the biotinylated FIXa were fully saturated and (3) the tips were then offered to an equimolar solution of 330 nM of the first antibody and 330 nM of a second bivalent anti-FIXa antibody for 5 minutes. […] Unspecific binding were evaluated by including an unrelated human IgG4 bivalent antibody as first and second antibody control.

[2] = target: T1, randomly biotinylated human FIXa; assay: BLI (Octet) in-tandem binning on biotinylated FIXa, 330 nM each; competitor (1st antibody): mAb01-1767
Procedure: as §1

[3] = target: T1, randomly biotinylated human FIXa; assay: BLI (Octet) in-tandem binning on biotinylated FIXa, 330 nM each; competitor (1st antibody): 224F3
Procedure: as §1

[4] = target: T1, randomly biotinylated human FIXa; assay: BLI (Octet) in-tandem binning on biotinylated FIXa, 330 nM each; competitor (1st antibody): mAb01-2434
Procedure: as §1

[5] = target: human plasma-derived Factor IXa (human, UniProt P00740 47-191; P00740 227-461); assay: cell-based or functional assay
Sequence of human plasma-derived Factor IXa (P00740 47-191, chain 1 of 2): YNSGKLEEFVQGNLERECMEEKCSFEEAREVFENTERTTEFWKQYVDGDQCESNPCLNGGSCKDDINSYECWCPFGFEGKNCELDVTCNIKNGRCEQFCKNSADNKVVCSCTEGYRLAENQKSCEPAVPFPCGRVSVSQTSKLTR
Sequence of human plasma-derived Factor IXa (P00740 227-461, chain 2 of 2): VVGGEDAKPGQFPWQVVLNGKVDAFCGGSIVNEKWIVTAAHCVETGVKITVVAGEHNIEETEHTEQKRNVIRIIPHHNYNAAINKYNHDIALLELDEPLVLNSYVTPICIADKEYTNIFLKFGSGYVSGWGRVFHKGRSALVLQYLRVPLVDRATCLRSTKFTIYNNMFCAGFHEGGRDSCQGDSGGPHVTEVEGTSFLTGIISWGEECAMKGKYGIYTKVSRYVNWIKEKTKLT

T1 sequence (P00740 47-191, chain 1 of 2): as the sequence (P00740 47-191, chain 1 of 2) above
T1 sequence (P00740 227-461, chain 2 of 2): as the sequence (P00740 227-461, chain 2 of 2) above

interferometry response value [1]: 2.11 | interferometry response value [2]: 1.6 | interferometry response value [3]: 0.11 | interferometry response value [4]: 1.69
B1: 224F3 (mAb01-1582) (antibody, V domains shown)
VH: QVQMQQSGAELVKPGASVKLSCKASGYTFTSQDINWVRQRPEQGLEWIGWIFPGDGSTKYNEKLKGKATLTTDKSSSTAFMQLSRLTSEDSAVYFCARSAYYRYDGSYYYAMDYWGQGTSVTVSS
VL: QIVLTQSPAIMSASLGEEITLTCSASSSVSYMLWYQQKSGTSPKLLIYTTSNLASGVPSRFSGTGSGTFYSLTISSVEAEDAADYYCHQWSSYPRTFGGGTKLEIKR

Maximum stimulation (fold), FXa generation assay with bispecific antibody; maximum at 7980 nM [5]: 21100 fold
B2: bimAb05-0745 (bispecific antibody, V domains shown)
VH 1: EVQLVESGGGLVQPGRSLRLSCAASGFTFHDYAMHWVRQVPGKGLEWVSGISWKGDIGGYVDSVKGRFTISRDNEKNSLYLQMNSLRAEDTALYYCVKSYGSGSFYNAFDSWGQGTLVTVSS
VL 1: DIQMTQSPSTLSASVGDRVTITCRASQSISSWLAWYQQKPGKAPKFLIYKASRLDRGTPSRFSGSGSGTEFSLTISSLQPDDFATYYCLEYSSYIRTFGQGTKVEIK
VH 2: EVQLVQSGAEVKKPGESLRISCKGSGYSFSTSWIVWVRQMPGKGLEWMGMIDPSDSFTSYSPSFQGHVTISADKSISTAYLQWSSLKASDTAMYYCARLHYYNSEEFDVWGQGTLVTVSS
VL 2: EIVLTQSPGTLSLSPGERATLSCRASQSVSSSYLAWYQQKPGQAPRLLIYGQSSRTRGIPDRFSGSGSGTDFTLTISRLEPEDFAVYYCQQFGDSQLFTFGQGTKLEIK

Maximum stimulation (fold), FXa generation assay with bispecific antibody; maximum at 2690 nM [5]: 16300 fold
B3: bimAb05-3761 (bispecific antibody, V domains shown)
VH 1: EVQLVESGGGLVQPGRSLKLSCAASGFTFDDYAMHWVRQVPGKGLEWVSGISWKGDIGGYVDSVKGRFTISRDNAKNSLYLQLNSLRAEDTALYYCAKSYGSGSFYNAFDSWGQGTLVTVSS
VL 1: DIQMTQSPSTLSASAGDEVTITCRASQSISSWLAWYQQKPGKAPKLLIYKASKLDRGVPSRFSGSGSGTEFSLTISDLQPDDFATYYCLEYSSYIRTFGQGTKVEIK
VH 2: EVQLVQSGAEVKKPGESLRISCKGSGYSFSTSWIVWVRQMPGKGLEWMGMIDPSDSFTSYSPSFQGHVTISADKSISTAYLQWSSLKASDTAMYYCARLHYYNSEEFDVWGQGTLVTVSS
VL 2: EIVLTQSPGTLSLSPGERATLSCRASQSVSSSYLAWYQQKPGQAPRLLIYGQSSRTRGIPDRFSGSGSGTDFTLTISRLEPEDFAVYYCQQFGDSQLFTFGQGTKLEIK

Maximum stimulation (fold), FXa generation assay with bispecific antibody; maximum at 7790 nM [5]: 14900 fold
B4: bimAb05-2115 (bispecific antibody, V domains shown)
VH 1: EVQLVESGGGLVQPGRSLRLSCAASGFTFHDYAMHWVRQVPGKGLEWVSGISWKGDIGGYVDSVKGRFTISRDNEKNSLYLQMNSLRAEDTALYYCVKSYGSGSFYNAFDSWGQGTLVTVSS
VL 1: DIQMTQSPSTLSASVGDRVTITCRASQSISSWLAWYQQKPGKAPKLLIYKASRLERGTPSRFSGSGSGTEFSLTISSLQPDDFATYYCLEYSSYIRTFGQGTKVEIK
VH 2: EVQLVQSGAEVKKPGESLRISCKGSGYSFSTSWISWVRQMPGKGLEWMGMIDPSDSYTSYSPSFQGHVTISADKSISTAYLQWSSLKASDTAMYYCARLHYYNSEEFDVWGQGTMVTVSS
VL 2: EIVLTQSPGTLSLSPGERATLSCRASQSVSSSYLAWYQQKPGQAPRLLIYGQSSRTRGIPDRFSGSGSGTDFTLTISRLEPEDFAVYYCQQYGDSQLFTFGQGTKLEIK

Maximum stimulation (fold), FXa generation assay with bispecific antibody; maximum at 7580 nM [5]: 35200 fold
B5: bimAb05-2114 (bispecific antibody, V domains shown)
VH 1: EVQLVESGGGLVQPGRSLRLSCAASGFTFHDYAMHWVRQVPGKGLEWVSGISWRGDIGGYVKSVKGRFTISRDNAKNSLYLQMNSLRAEDTALYYCVKSYGSGSFYNAFDSWGQGTLVTVSS
VL 1: DIQMTQSPSTLSASVGDRVTITCRASQSISSWLAWYQQKPGKAPKFLIYKASKLERGTPSRFSGSGSGTEFSLTISSLQPDDFATYYCLEYSSYIRTFGQGTKVEIK
VH 2: EVQLVQSGAEVKKPGESLRISCKGSGYSFSTSWISWVRQMPGKGLEWMGMIDPSDSYTSYSPSFQGHVTISADKSISTAYLQWSSLKASDTAMYYCARLHYYNSEEFDVWGQGTMVTVSS
VL 2: EIVLTQSPGTLSLSPGERATLSCRASQSVSSSYLAWYQQKPGQAPRLLIYGQSSRTRGIPDRFSGSGSGTDFTLTISRLEPEDFAVYYCQQYGDSQLFTFGQGTKLEIK

Maximum stimulation (fold), FXa generation assay with bispecific antibody; maximum at 8170 nM [5]: 27400 fold
B6: bimAb05-3769 (bispecific antibody, V domains shown)
VH 1: EVQLVESGGGLVQPGRSLRLSCAASGFTFHDYAMHWVRQVPGKGLEWVSGISWRGDIGGYVKSVKGRFTISRDNAKNSLYLQMNSLRAEDTALYYCVKSYGSGSFYNAFDSWGQGTLVTVSS
VL 1: DIQMTQSPSTLSASVGDRVTITCRASQSISSWLAWYQQKPGKAPKFLIYKASKLERGTPSRFSGSGSGTEFSLTISSLQPDDFATYYCLEYSSYIRTFGQGTKVEIK
VH 2: EVQLVQSGAEVKKPGESLRISCKGSGYSFSTSWIVWVRQMPGKGLEWMGMIDPSDSFTSYSPSFQGHVTISADKSISTAYLQWSSLKASDTAMYYCARLHYYNSEEFDVWGQGTLVTVSS
VL 2: EIVLTQSPGTLSLSPGERATLSCRASQSVSSSYLAWYQQKPGQAPRLLIYGQSSRTRGIPDRFSGSGSGTDFTLTISRLEPEDFAVYYCQQFGDSQLFTFGQGTKLEIK

Maximum stimulation (fold), FXa generation assay with bispecific antibody; maximum at 3717 nM [5]: 14600 fold
B7: bimAb05-0746 (bispecific antibody, V domains shown)
VH 1: EVQLVESGGGLVQPGRSLRLSCAASGFTFHDYAMHWVRQVPGKGLEWVSGISWKGDIGGYVDSVKGRFTISRDNEKNSLYLQMNSLRAEDTALYYCVKSYGSGSFYNAFDSWGQGTLVTVSS
VL 1: DIQMTQSPSTLSASVGDRVTITCRASQSISSWLAWYQQKPGKAPKLLIYKASRLERGTPSRFSGSGSGTEFSLTISSLQPDDFATYYCLEYSSYIRTFGQGTKVEIK
VH 2: EVQLVQSGAEVKKPGESLRISCKGSGYSFSTSWIVWVRQMPGKGLEWMGMIDPSDSFTSYSPSFQGHVTISADKSISTAYLQWSSLKASDTAMYYCARLHYYNSEEFDVWGQGTLVTVSS
VL 2: EIVLTQSPGTLSLSPGERATLSCRASQSVSSSYLAWYQQKPGQAPRLLIYGQSSRTRGIPDRFSGSGSGTDFTLTISRLEPEDFAVYYCQQFGDSQLFTFGQGTKLEIK

Maximum stimulation (fold), FXa generation assay with bispecific antibody; maximum at 156 nM [5]: 7570 fold
B8: bimAb05-3755 (bispecific antibody, V domains shown)
VH 1: EVQLVESGGGLVQPGRSLRLSCAASGFTFHDYAMHWVRQVPGKGLEWVSGISWKGDIGGYVDSVKGRFTISRDNEKNSLYLQMNSLRAEDTALYYCVKSYGSGSFYNAFDSWGQGTLVTVSS
VL 1: DIQMTQSPSTLSASVGDRVTITCRASQSISSWLAWYQQKPGKAPKFLIYKASRLDRGTPSRFSGSGSGTEFSLTISSLQPDDFATYYCLEYSSYIRTFGQGTKVEIK
VH 2: EVQLVQSGAEVKKPGESLRISCKGSGYSFTTSWIVWVRQMPGKGLEWMGMIDPSDSFTSYSPSFQGHVTISADKSISTAYLQWSSLKASDTAMYYCARLHYYHSEEFDVWGQGTLVTVSS
VL 2: EIVLTQSPGTLSLSPGERATLSCRASQSVSSSYLAWYQQKPGQAPRLLIYGASSRARGIPDRFSGSGSGTDFTLTISRLEPEDFAVYYCQQFGSSRLFTFGQGTKLEIK

Maximum stimulation (fold), FXa generation assay with bispecific antibody; maximum at 7820 nM [5]: 30400 fold
B9: bimAb05-2112 (bispecific antibody, V domains shown)
VH 1: EVQLVESGGGLVQPGRSLRLSCAASGFTFHDYAMHWVRQVPGKGLEWVSGISWKGDIGGYVDSVKGRFTISRDNEKNSLYLQMNSLRAEDTALYYCVKSYGSGSFYNAFDSWGQGTLVTVSS
VL 1: DIQMTQSPSTLSASVGDRVTITCRASQSISSWLAWYQQKPGKAPKFLIYKASRLDRGTPSRFSGSGSGTEFSLTISSLQPDDFATYYCLEYSSYIRTFGQGTKVEIK
VH 2: EVQLVQSGAEVKKPGESLRISCKGSGYSFSTSWISWVRQMPGKGLEWMGMIDPSDSYTSYSPSFQGHVTISADKSISTAYLQWSSLKASDTAMYYCARLHYYNSEEFDVWGQGTMVTVSS
VL 2: EIVLTQSPGTLSLSPGERATLSCRASQSVSSSYLAWYQQKPGQAPRLLIYGQSSRTRGIPDRFSGSGSGTDFTLTISRLEPEDFAVYYCQQYGDSQLFTFGQGTKLEIK

Maximum stimulation (fold), FXa generation assay with bispecific antibody; maximum at 7600 nM [5]: 26300 fold
B10: bimAb05-2113 (bispecific antibody, V domains shown)
VH 1: EVQLVESGGGLVQPGRSLKLSCAASGFTFDDYAMHWVRQVPGKGLEWVSGISWKGDIGGYVDSVKGRFTISRDNAKNSLYLQLNSLRAEDTALYYCAKSYGSGSFYNAFDSWGQGTLVTVSS
VL 1: DIQMTQSPSTLSASAGDEVTITCRASQSISSWLAWYQQKPGKAPKLLIYKASKLDRGVPSRFSGSGSGTEFSLTISDLQPDDFATYYCLEYSSYIRTFGQGTKVEIK
VH 2: EVQLVQSGAEVKKPGESLRISCKGSGYSFSTSWISWVRQMPGKGLEWMGMIDPSDSYTSYSPSFQGHVTISADKSISTAYLQWSSLKASDTAMYYCARLHYYNSEEFDVWGQGTMVTVSS
VL 2: EIVLTQSPGTLSLSPGERATLSCRASQSVSSSYLAWYQQKPGQAPRLLIYGQSSRTRGIPDRFSGSGSGTDFTLTISRLEPEDFAVYYCQQYGDSQLFTFGQGTKLEIK
